Source: article PMC7337937, “CryoEM structures of human CMG–ATPγS–DNA and CMG–AND-1 complexes” (Nucleic Acids Research, 2020)

What was measured:
[1] = molecular target: human CMG helicase (Cdc45-MCM2-7-GINS) (Homo sapiens, UniProt O75419;P49736;P25205-2;P33991;P33992;Q14566;P33993;Q14691;Q9Y248;Q9BRX5;Q9BRT9 …); experiment: cryo-EM structure (3.29 A); 100 uM ATPgS, 5 mM Mg acetate; ATPgS-Mg2+ at MCM6, MCM4, MCM7; ADP at MCM2, MCM3; MCM5 apo; Buffer S: 25 mM HEPES pH 7.5, 50 mM KCl, 5 mM Mg acetate, 2 mM DTT, with 100 uM ATPgS and 4 uM fork DNA, loaded on StrepTrap-bound CMG; eluted with 15 mM desthiobiotin; binding temperature not stated; conditions: protein: recombinant; tags: MCM4 N-terminal His8-TEV; Psf2 C-terminal TEV-2xStrepII; copies: 1;1;1;1;1;1;1;1;1;1;1; fork: 40 bp duplex 1:1-40 2:31-70; 30 nt unpaired tails, 3' poly-dT (strand 1) and 5' GC-rich (strand 2)
[2] = molecular target: the molecule itself; experiment: cryo-EM structure; CMGA: AND-1 co-expressed with the CMG subunits in HEK293-F, co-purified; 1 mM ATPγS added, glutaraldehyde cross-linked before grid preparation; 6.77 Å map, CMG structure and AND-1 trimer crystal structure docked as rigid bodies

B1: fork DNA (70T/70GC) (mixed)
DNA 1: CGTTTTACAACGTCGTGACTGGGCACTTGATCGGCCAACCTTTTTTTTTTTTTTTTTTTTTTTTTTTTTT
DNA 2: CAGGCAGGCAGGCAGGCAGGCAGGCAGGCAGGTTGGCCGATCAAGTGCCCAGTCACGACGTTGTAAAACG
Question: Does B1 bind [1]?
Answer: Result: binds

B2: human AND-1, recombinant full length (natural protein, UniProt O75717 1-1129, looked up)
chain: MPATRKPMRYGHTEGHTEVCFDDSGSFIVTCGSDGDVRIWEDLDDDDPKFINVGEKAYSCALKSGKLVTAVSNNTIQVHTFPEGVPDGILTRFTTNANHVVFNGDGTKIAAGSSDFLVKIVDVMDSSQQKTFRGHDAPVLSLSFDPKDIFLASASCDGSVRVWQISDQTCAISWPLLQKCNDVINAKSICRLAWQPKSGKLLAIPVEKSVKLYRRESWSHQFDLSDNFISQTLNIVTWSPCGQYLAAGSINGLIIVWNVETKDCMERVKHEKGYAICGLAWHPTCGRISYTDAEGNLGLLENVCDPSGKTSSSKVSSRVEKDYNDLFDGDDMSNAGDFLNDNAVEIPSFSKGIINDDEDDEDLMMASGRPRQRSHILEDDENSVDISMLKTGSSLLKEEEEDGQEGSIHNLPLVTSQRPFYDGPMPTPRQKPFQSGSTPLHLTHRFMVWNSIGIIRCYNDEQDNAIDVEFHDTSIHHATHLSNTLNYTIADLSHEAILLACESTDELASKLHCLHFSSWDSSKEWIIDLPQNEDIEAICLGQGWAAAATSALLLRLFTIGGVQKEVFSLAGPVVSMAGHGEQLFIVYHRGTGFDGDQCLGVQLLELGKKKKQILHGDPLPLTRKSYLAWIGFSAEGTPCYVDSEGIVRMLNRGLGNTWTPICNTREHCKGKSDHYWVVGIHENPQQLRCIPCKGSRFPPTLPRPAVAILSFKLPYCQIATEKGQMEEQFWRSVIFHNHLDYLAKNGYEYEESTKNQATKEQQELLMKMLALSCKLEREFRCVELADLMTQNAVNLAIKYASRSRKLILAQKLSELAVEKAAELTATQVEEEEEEEDFRKKLNAGYSNTATEWSQPRFRNQVEEDAEDSGEADDEEKPEIHKPGQNSFSKSTNSSDVSAKSGAVTFSSQGRVNPFKVSASSKEPAMSMNSARSTNILDNMGKSSKKSTALSRTTNNEKSPIIKPLIPKPKPKQASAASYFQKRNSQTNKTEEVKEENLKNVLSETPAICPPQNTENQRPKTGFQMWLEENRSNILSDNPDFSDEADIIKEGMIRFRVLSTEERKVWANKAKGETASEGTEAKKRKRVVDESDETENQEEKAKENLNLSKKQKPLDFSTNQKLSAFAFKQE
notes: AND-1, human, full-length ORF from IMAGE cDNA clone 6514641; The tag is 2xStrepII-TEV; no TEV cleavage step is described; Only the SepB domain is visible in the map; also called AND-1 trimer; source: HEK293-F, transient co-transfection with the CMG subunits, co-purified as CMGA
Question: Which “stoichiometry N” value [2] does the source give for B2 here?
Answer: Its value is 3.
